From patent US20210371527A1 (IMAGINAB, published 2021)

Molecular target: T1, human CD4 on HPB-ALL cells (human, UniProt P01730 26-458)
T1 construct: The assay used HPB-ALL cells; no signal peptide limits are stated; also called HPB-ALL cells (human T cell leukemia, DSMZ ACC 483); HPC-ALL
Assay: flow cytometry on HPB-ALL cells

| Binder | binding result |
| --- | --- |
| deferoxamine conjugated humanized IAB41-1 minibody (other, deferoxamine (Df) chelator conjugated; sites of conjugation not stated, also called Df-Hu-IAB41-1) EIVLTQSPATLSLSPGERATLSCSARSSVSYLYWYQQKPGQAPRLLIYDTSNLASGIPDRFSGSGSGTDFTLTISRLEPEDAAVYYCQQWSDYPLTFGGGTKLEIKGSTSGGGSGGGSGGGGSSQVQLVQSGAEVKKPGASVKVSCKASGYSFANYWMHWVRQAPGQRLEWIGALYPGNVDTTYNQKFQGRVTITRDTSASTAYMELSSLRSEDTAVYYCTRMGTTLEAPLDYWGQGTLVTVSSEPKSSDKTHTCPPCPPCGGGSSGGGSGGQPREPQVYTLPPSREEMTKNQVSLTCLVKGFYPSDIAVEWESNGQPENNYKTTPPVLDSDGSFFLYSKLTVDKSRWQQGNVFSCSVMHEALHNHYTQKSLSLSPG | binds |
| humanized IAB41-1 minibody (other, also called Hu-IAB41-1; Construct 41-1) EIVLTQSPATLSLSPGERATLSCSARSSVSYLYWYQQKPGQAPRLLIYDTSNLASGIPDRFSGSGSGTDFTLTISRLEPEDAAVYYCQQWSDYPLTFGGGTKLEIKGSTSGGGSGGGSGGGGSSQVQLVQSGAEVKKPGASVKVSCKASGYSFANYWMHWVRQAPGQRLEWIGALYPGNVDTTYNQKFQGRVTITRDTSASTAYMELSSLRSEDTAVYYCTRMGTTLEAPLDYWGQGTLVTVSSEPKSSDKTHTCPPCPPCGGGSSGGGSGGQPREPQVYTLPPSREEMTKNQVSLTCLVKGFYPSDIAVEWESNGQPENNYKTTPPVLDSDGSFFLYSKLTVDKSRWQQGNVFSCSVMHEALHNHYTQKSLSLSPG | binds |
